Biological target: IL36R
Assay: Kd (SPR)

Row | Kd [nM] | Binder
1 | 46.1 | unnamed (protein) chain 1: QVQLVQSGAEVKKPGASVKVSCKASGYTFTSNWIHWVKQAPGQGLEWMGEIYPGNSNTNYNENFRNKVTMTVDTSISTAYMELSRLRSDDTAVYYCTRVRFGEPWFDYWGQGTLVTVSS chain 2: QIVLTQSPGTLSLSPGERATMTCTASSSVSSSYFHWYQQKPGQAPRLWIYRTSRLASGVPDRFSGSGSGTDFTLTISRLEPEDAATYYCHQFHRSPLTFGAGTKLEIK
2 | 4.32 | unnamed (protein) chain 1: QVQLVQSGAEVKKPGASVKVSCKASGYSFTSSWIHWVKQAPGQGLEWMGEINPGNVRTNYNENFRNKVTMTVDTSISTAYMELSRLRSDDTAVYYCTRVRFGEPWFDYWGQGTLVTVSS chain 2: QIVLTQSPGTLSLSPGERATMTCTASSSVSSSYFHWYQQKPGQAPRLWIYRTSRLASGVPDRFSGSGSGTDFTLTISRLEPEDAATYYCHQFHRSPLTFGAGTKLEIK
3 | 0.888 | unnamed (protein) chain 1: QVQLVQSGAEVKKPGASVKVSCKASGYSFTSSWIHWVKQAPGQGLEWMGEINPGNVRTNYNENFRNKVTMTVDTSISTAYMELSRLRSDDTAVYYCTTVRYGEPYFDYWGQGTLVTVSS chain 2: QIVLTQSPGTLSLSPGERATMTCTASSSVSSSYFHWYQQKPGQAPRLWIYRTSRLASGVPDRFSGSGSGTDFTLTISRLEPEDAATYYCHQFHRSPLTFGAGTKLEIK
4 | 54.3 | unnamed (protein) chain 1: QVQLVQSGAEVKKPGASVKVSCKASGYTFTSNWIHWVKQAPGQGLEWMGEIYPGNSNTNYNENFRNKVTMTVDTSISTAYMELSRLRSDDTAVYYCTRVKYGEPYFDYWGQGTLVTVSS chain 2: QIVLTQSPGTLSLSPGERATMTCTASSSVSSSYFHWYQQKPGQAPRLWIYRTSRLASGVPDRFSGSGSGTDFTLTISRLEPEDAATYYCHQFHRSPLTFGAGTKLEIK
5 | 1.54 | unnamed (protein) chain 1: QVQLVQSGAEVKKPGASVKVSCKASGYSFTSSWIHWVKQAPGQGLEWMGEINPGNVRTNYNENFRNKVTMTVDTSISTAYMELSRLRSDDTAVYYCTRVVFGEPYFDYWGQGTLVTVSS chain 2: QIVLTQSPGTLSLSPGERATMTCTASSSVSSSYFHWYQQKPGQAPRLWIYRTSRLASGVPDRFSGSGSGTDFTLTISRLEPEDAATYYCHQFHRSPLTFGAGTKLEIK
6 | 31.8 | unnamed (protein) chain 1: QVQLVQSGAEVKKPGASVKVSCKASGYTFTSNWIHWVKQAPGQGLEWMGEIYPGNSNTNYNENFRNKVTMTVDTSISTAYMELSRLRSDDTAVYYCTRVRYGEPWFDYWGQGTLVTVSS chain 2: QIVLTQSPGTLSLSPGERATMTCTASSSVSSSYFHWYQQKPGQAPRLWIYRTSRLASGVPDRFSGSGSGTDFTLTISRLEPEDAATYYCHQFHRSPLTFGAGTKLEIK
7 | 6.22 | unnamed (protein) chain 1: QVQLVQSGAEVKKPGASVKVSCKASGYSFTSSWIHWVKQAPGQGLEWMGEIYPGNSNTNYNENFRNKVTMTVDTSISTAYMELSRLRSDDTAVYYCTRLRYGEPYFDYWGQGTLVTVSS chain 2: QIVLTQSPGTLSLSPGERATMTCTASSSVSSSYFHWYQQKPGQAPRLWIYRTSRLASGVPDRFSGSGSGTDFTLTISRLEPEDAATYYCHQFHRSPLTFGAGTKLEIK
8 | 157 | unnamed (protein) chain 1: QVQLVQSGAEVKKPGASVKVSCKASGYTFTSSWIHWVKQAPGQGLEWMGEIYPGNSNTNYNENFRNKVTMTVDTSISTAYMELSRLRSDDTAVYYCTRSRYGEPWFDYWGQGTLVTVSS chain 2: QIVLTQSPGTLSLSPGERATMTCTASSSVSSSYFHWYQQKPGQAPRLWIYRTSRLASGVPDRFSGSGSGTDFTLTISRLEPEDAATYYCHQFHRSPLTFGAGTKLEIK
9 | 38.2 | unnamed (protein) chain 1: QVQLVQSGAEVKKPGASVKVSCKASGYTFTSSWIHWVKQAPGQGLEWMGEIYPGNSNTNYNENFRNKVTMTVDTSISTAYMELSRLRSDDTAVYYCTRSRYGEPYFDYWGQGTLVTVSS chain 2: QIVLTQSPGTLSLSPGERATMTCTASSSVSSSYFHWYQQKPGQAPRLWIYRTSRLASGVPDRFSGSGSGTDFTLTISRLEPEDAATYYCHQFHRSPLTFGAGTKLEIK

The remaining lines, values behind:

Row | Binder | Kd [nM]
10 | unnamed (protein) chain 1: QVQLVQSGAEVKKPGASVKVSCKASGYSFTSSWIHWVKQAPGQGLEWMGEINPGNVRTNYNENFRNKVTMTVDTSISTAYMELSRLRSDDTAVYYCTRVSFGEPWFDYWGQGTLVTVSS chain 2: QIVLTQSPGTLSLSPGERATMTCTASSSVSSSYFHWYQQKPGQAPRLWIYRTSRLASGVPDRFSGSGSGTDFTLTISRLEPEDAATYYCHQFHRSPLTFGAGTKLEIK | 7.07
11 | unnamed (protein) chain 1: QVQLVQSGAEVKKPGASVKVSCKASGYSFTSSWIHWVKQAPGQGLEWMGEINPGNVRTNYNENFRNKVTMTVDTSISTAYMELSRLRSDDTAVYYCTRMRYGEPWFDYWGQGTLVTVSS chain 2: QIVLTQSPGTLSLSPGERATMTCTASSSVSSSYFHWYQQKPGQAPRLWIYRTSRLASGVPDRFSGSGSGTDFTLTISRLEPEDAATYYCHQFHRSPLTFGAGTKLEIK | 68.3
12 | unnamed (protein) chain 1: QVQLVQSGAEVKKPGASVKVSCKASGYSFTSNWIHWVKQAPGQGLEWMGEIYPGNSNTNYNENFRNKVTMTVDTSISTAYMELSRLRSDDTAVYYCTRVRYGEPWFDYWGQGTLVTVSS chain 2: QIVLTQSPGTLSLSPGERATMTCTASSSVSSSYFHWYQQKPGQAPRLWIYRTSRLASGVPDRFSGSGSGTDFTLTISRLEPEDAATYYCHQFHRSPLTFGAGTKLEIK | 3.35
13 | unnamed (protein) chain 1: QVQLVQSGAEVKKPGASVKVSCKASGYSFTSSWIHWVKQAPGQGLEWMGEINPGNVRTNYNENFRNKVTMTVDTSISTAYMELSRLRSDDTAVYYCTRSRYGEPYFDYWGQGTLVTVSS chain 2: QIVLTQSPGTLSLSPGERATMTCTASSSVSSSYFHWYQQKPGQAPRLWIYRTSRLASGVPDRFSGSGSGTDFTLTISRLEPEDAATYYCHQFHRSPLTFGAGTKLEIK | 4.79
14 | unnamed (protein) chain 1: QVQLVQSGAEVKKPGASVKVSCKASGYSFTSSWIHWVKQAPGQGLEWMGEINPGNVRTNYNENFRNKVTMTVDTSISTAYMELSRLRSDDTAVYYCTRQTYGEPYFDYWGQGTLVTVSS chain 2: QIVLTQSPGTLSLSPGERATMTCTASSSVSSSYFHWYQQKPGQAPRLWIYRTSRLASGVPDRFSGSGSGTDFTLTISRLEPEDAATYYCHQFHRSPLTFGAGTKLEIK | 274
15 | unnamed (protein) chain 1: QVQLVQSGAEVKKPGASVKVSCKASGYTFTSSWIHWVKQAPGQGLEWMGEIKPGNSNTNYNENFRNKVTMTVDTSISTAYMELSRLRSDDTAVYYCTRVSYGEPYFDYWGQGTLVTVSS chain 2: QIVLTQSPGTLSLSPGERATMTCTASSSVSSSYFHWYQQKPGQAPRLWIYRTSRLASGVPDRFSGSGSGTDFTLTISRLEPEDAATYYCHQFHRSPLTFGAGTKLEIK | 138
16 | unnamed (protein) chain 1: QVQLVQSGAEVKKPGASVKVSCKASGYSFTSSWIHWVKQAPGQGLEWMGEINPGNVRTNYNENFRNKVTMTVDTSISTAYMELSRLRSDDTAVYYCTRVSFGEPYFDYWGQGTLVTVSS chain 2: QIVLTQSPGTLSLSPGERATMTCTASSSVSSSYFHWYQQKPGQAPRLWIYRTSRLASGVPDRFSGSGSGTDFTLTISRLEPEDAATYYCHQFHRSPLTFGAGTKLEIK | 0.758
17 | unnamed (protein) chain 1: QVQLVQSGAEVKKPGASVKVSCKASGYSFTSSWIHWVKQAPGQGLEWMGEINPGNVRTNYNENFRNKVTMTVDTSISTAYMELSRLRSDDTAVYYCTRVVYGEPYFDYWGQGTLVTVSS chain 2: QIVLTQSPGTLSLSPGERATMTCTASSSVSSSYFHWYQQKPGQAPRLWIYRTSRLASGVPDRFSGSGSGTDFTLTISRLEPEDAATYYCHQFHRSPLTFGAGTKLEIK | 0.649
18 | unnamed (protein) chain 1: QVQLVQSGAEVKKPGASVKVSCKASGYSFTSSWIHWVKQAPGQGLEWMGEINPGNVRTNYNENFRNKVTMTVDTSISTAYMELSRLRSDDTAVYYCTRVFYGEPYFDYWGQGTLVTVSS chain 2: QIVLTQSPGTLSLSPGERATMTCTASSSVSSSYFHWYQQKPGQAPRLWIYRTSRLASGVPDRFSGSGSGTDFTLTISRLEPEDAATYYCHQFHRSPLTFGAGTKLEIK | 1.13
19 | unnamed (protein) chain 1: QVQLVQSGAEVKKPGASVKVSCKASGYSFTSSWIHWVKQAPGQGLEWMGEINPGNVRTNYNENFRNKVTMTVDTSISTAYMELSRLRSDDTAVYYCTRVTYGEPYFDYWGQGTLVTVSS chain 2: QIVLTQSPGTLSLSPGERATMTCTASSSVSSSYFHWYQQKPGQAPRLWIYRTSRLASGVPDRFSGSGSGTDFTLTISRLEPEDAATYYCHQFHRSPLTFGAGTKLEIK | 0.991

Reference: the FLAb antibody collection (doi:10.1101/2023.12.08.570889)
